B1: 100244_C7VH10_100245_C8VK5 (antibody, V domains shown)
VH: EVQLQESGPELVRPGASVKMSCKASGYTFTSYWMHWVKQRPGQGLEWIGMIDPSNSETSLNQKFKDKATLNVDKSSKTAYMQLSSLTSEDSAVYYCARSRGNYAYDMDYWGQGTSVTVSS
VL: DIVITQTTAIMSASPGEKVTLTCSASSSVSSNYLYWYQQRPGSSPKLWIYSTSNLASGVPARFSGSGSGTSYSLTISSMEAEDAASYFCHQWSSYPPTFGSGTKLEIK
notes: Mouse variable regions; cloned into pFUSE-CHIg-mG1 (murine IgG1 Fc), expressed in HEK293
B2: 100258_F6VH4_100259_F6VK1 (antibody, V domains shown)
VH: B1 VH with D52E, N55S, K77N, D106E
VL: B1 VL with I4M, I10T, S30N, R40K, L47V, I107L
notes: as for B1
B3: 100246_F7VH3_100247_F7VK2 (antibody, V domains shown)
VH: B1 VH with S54Y, N55S, S75I, K77N, Y95F
VL: B1 VL with I4L, T7S, S28G, S30N, R40K, M79V
notes: as for B1
B4: 100258_F6VH4_100259_F6VK1m1 (antibody, V domains shown)
VH: B1 VH with D52E, N55S, K77N, D106E
VL: B1 VL with I4M, T8P, I10T, S30N, R40K, L47V, I107L
notes: Mouse variable regions; cloned into pFUSE-CHIg-mG1 (murine IgG1 Fc), expressed in HEK293; also called 258F6m
B5: 100244_C7VH10_100245_C8VK5m1 (antibody, V domains shown)
VH: B1 VH
VL: B1 VL with I4L, T8P
notes: Mouse variable regions; cloned into pFUSE-CHIg-mG1 (murine IgG1 Fc), expressed in HEK293; also called 244C7m1
B6: 100258_C1VH4_100259_C1VK1 (antibody, V domains shown)
VH: EVQLQESGAELVMPGASVKMSCKASGYTFTDYWMHWVKQRPGQGLEWIGAIDTSDSYTSYHQNFKGKATLTEDESSSTAYMQLSSLTSEDSAIYYCARRDYGGFGYWGQGTTLTVSS
VL: DIVITQSPLSLPVGLGDQASISCRSSQSLVHSNGNTYLHWYLQKPGQSPKLLIYKVSNRFSGVPDRFSGSGSGTDFTLKISRVEAEDLGVYFCSQSTHVPYTFGGGTKLEIK
notes: as for B1
B7: 100394_F1VH8_100395_F1VK4 (antibody, V domains shown)
VH: EVQLQESGPELVKPGASVKIPCKASGYTFTDYNMDWVKQSHGKSLEWIGDIDPNNGGTIYNQNFKGKATLTVDKSSSTAYMELRSLTSEDTAVYYCARWRSSMDYWGQGTSVTVSS
VL: DIVLTQSPSSLSASLGDRVTISCSASQGISNYLNWYQQKPDGTVKLLIYYTSSLHSGVPSRFSGSGSGTDYSLTISNLEPEDIATYYCQQYSKLPWTFGGGTKLEIK
notes: as for B1
B8: 100392_D2VH7_100393_D2VK6 (antibody, V domains shown)
VH: B7 VH with N55T, G57T, I59F, N63D, V112L
VL: B7 VL with L4M, S7T, N31Y, V44I, S52L, K93E
notes: as for B1
B9: 100392_B4VH10_100393_B4VK10 (antibody, V domains shown)
VH: B7 VH with K13R, K38M, N63K, A97T
VL: B7 VL with L4M, S53N, N77D, E79A, K93Y
notes: as for B1
B10: 100388_C1VH6_100389_C1VK2 (antibody, V domains shown)
VH: B7 VH with T58I, N63K, T69A, A97T
VL: B7 VL with S7T
notes: Mouse variable regions; cloned into pFUSE-CHIg-mG1 (murine IgG1 Fc), expressed in HEK293; also called 388C16B
B11: 100394_G1VH1_100395_G1VK4 (antibody, V domains shown)
VH: B7 VH with S40N, G57D, N63K, S77R
VL: B7 VL with L4M, K39R, K93N
notes: as for B1
B12: 100392_C5VH6_100393_C5VK10 (antibody, V domains shown)
VH: B7 VH with N55S, T58S, N63K, S77R, A79V
VL: B7 VL with L4M, P8T, N31H, S76R, K93E
notes: Mouse variable regions; cloned into pFUSE-CHIg-mG1 (murine IgG1 Fc), expressed in HEK293; also called 392C5B
B13: 100392_C5VH6_100393_C5VK7 (antibody, V domains shown)
VH: B7 VH with N55S, T58S, N63K, S77R, A79V
VL: B7 VL with L4M, N31H, S76R, K93E
notes: Mouse variable regions; cloned into pFUSE-CHIg-mG1 (murine IgG1 Fc), expressed in HEK293; also called 392C5A
B14: 100388_C1VH2_100389_C1VK1 (antibody, V domains shown)
VH: B7 VH with T58I, N63K, T69A
VL: B7 VL with L4M, G28D, N31S, K93E
notes: Mouse variable regions; cloned into pFUSE-CHIg-mG1 (murine IgG1 Fc), expressed in HEK293; also called 388C12A
B15: 100394_D5VH9_100395_D5VK7 (antibody, V domains shown)
VH: B7 VH with K23R, T28I, N63K, G66D, A68T, S77R
VL: B7 VL with L4M, S7T, L11M, K93Y
notes: as for B1
B16: 100392_H4VH9_100393_H4VK6 (antibody, V domains shown)
VH: B7 VH with M34V, I59F, N63K, Y80H, A97V
VL: B7 VL with L4M, S53N, N77D, E79A, K93Y
notes: as for B1
B17: 100388_C1VH6_100389_C1VK1 (antibody, V domains shown)
VH: B7 VH with T58I, N63K, T69A, A97T
VL: B7 VL with L4M, G28D, N31S, K93E
notes: Mouse variable regions; cloned into pFUSE-CHIg-mG1 (murine IgG1 Fc), expressed in HEK293; also called 388C16A
B18: 100388_C1VH2_100389_C1VK2 (antibody, V domains shown)
VH: B7 VH with T58I, N63K, T69A
VL: B7 VL with S7T
notes: Mouse variable regions; cloned into pFUSE-CHIg-mG1 (murine IgG1 Fc), expressed in HEK293; also called 388C12B
B19: 100392_C4VH5_100393_C4VK8 (antibody, V domains shown)
VH: B7 VH with Q39K, N63K, S77R
VL: B7 VL with L4I, K93E
notes: as for B1
B20: 100411_C2VH3_100412_C2VK7 (antibody, V domains shown)
VH: EVQLQESGPGLVKPSQSLSLTCTVTGYSITSDYAWNWIRQFPGNKLEWMGYITYSGSPTYNPSLKSQFSITRDTSKNQFFLQLNSVTTEDTATYYCARGLGGHYFDYWGQGTTLTVSS
VL: DIVLTQTTATLSVTPGDRVSLSCRASQSISDYLHWYQQKSHESPRLLIKYASQSISGIPSRFSGSGSGSDFTLTVNSVEPEDVGVYYCQNGHSYPYTFGGGTKLEIK
notes: as for B1
B21: 100388_H4VH1_100389_H4VK4 (antibody, V domains shown)
VH: EVQLQESGPGLVAPSQSLSITCTVSGFSLTNYGVDWVRQSPGKGLEWLGVIWGVGSTNYNSALKSRLSISKDNSKSQVFLKMNSLQTDDTAMYYCASDGFVYWGQGTLVTVSS
VL: DIVLTQDELSNPVTSGESVSISCRSSKSLLYKDGKTYLNWFLQRPGQSPQVLIYFMSTRASGVSDRFSGSGSGTDFTLEISRVKAEDVGVYYCQQLVDFPFTFGSGTKLELK
notes: as for B1
B22: 100392_C3VH7_100393_C3VK10 (antibody, V domains shown)
VH: B21 VH with N31S, V54I, T87S
VL: B21 VL with L4M, S10Y, L111I
notes: as for B1
B23: 100413_H1VH3_100414_H1VK6 (antibody, V domains shown)
VH: EVQLQESGPSLVQPSQSLSITCTVSGFSLTNYGVHWVRQSPGKGLEWLGVIWRGGNTDYNAAFMSRLSITKDNSKSQVFFKFHSLQTDDTAIYYCAASMIGGYWGQGTTLTVSS
VL: DIVLTQSPLSLPVSLGDQASISCRSSQSIVHSDGNTYLEWYLQKPGQSPKLLIYKVSNRFSGVPDRFSGSGSGTDFTLKISRVEAEDLGIYYCFQGSHVPLTFGAGTKLELK
notes: as for B1
B24: 100392_A6VH8_100393_A6VK5 (antibody, V domains shown)
VH: EVQLQESGAELVRPGASVTLSCKASGYTFTDYEIHWVKQTPVHGLEWIGAIDPETGGTAYNQKFKGKAILTADKSSSTAYMELRSLTSEDSAVYYCTSEKFGSSYYFDYWGQGTTFTVSS
VL: B23 VL with L4M, P8T, A19V, K50N, I90V
notes: as for B1

Where a chain is given by its changes, count along the chain named.

T2 sequence (Q15116 25-288): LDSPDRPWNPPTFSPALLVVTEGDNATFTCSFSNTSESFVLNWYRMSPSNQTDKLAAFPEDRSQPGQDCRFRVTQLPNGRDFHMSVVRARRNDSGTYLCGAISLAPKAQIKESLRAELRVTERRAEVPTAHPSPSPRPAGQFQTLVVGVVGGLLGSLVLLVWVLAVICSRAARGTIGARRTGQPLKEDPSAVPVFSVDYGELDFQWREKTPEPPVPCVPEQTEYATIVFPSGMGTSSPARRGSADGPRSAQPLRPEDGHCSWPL

One experiment deals with T1, PD-1-HIS (human, UniProt Q15116).
T1 construct: soluble extracellular domain; May be the same protein as m2; also called PD-1-HIS(tag); PD-1-His Tag (Sino Biological #10377-H08H-50)
T1 sequence (Q15116 25-167 limits assumed): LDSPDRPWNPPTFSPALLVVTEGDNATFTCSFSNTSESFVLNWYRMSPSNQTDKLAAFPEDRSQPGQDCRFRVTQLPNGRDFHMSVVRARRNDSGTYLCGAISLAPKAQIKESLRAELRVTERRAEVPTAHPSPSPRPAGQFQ
Description: ELISA, supernatant of transfected HEK293 cells on PD-1-HIS(tag), OD 450 nm, average of two experiments.
On to B1, for which the binding result is given as “binds”.

Take B2: the binding result is recorded as “binds”.

Turning to B3, the binding result is given as “binds”.

As to B4, the binding result is “binds”.

As to B5, the binding result is on record as “binds”.

B6: the binding result is listed as “binds”.

In the case of B7, the binding result is reported as “binds”.

Consider B8, for which the binding result was “binds”.

Turning to B9, the binding result is “binds”.

For B10, the binding result is recorded as “binds”.

B11: the binding result is “binds”.

Take B12: the binding result is “binds”.

As to B13, the binding result was “binds”.

Turning to B14, the binding result is listed as “binds”.

Take B15: the binding result is “binds”.

Turning to B16, the binding result is “binds”.

Consider B17, for which the binding result is on record as “binds”.

B18: the binding result is recorded as “binds”.

For B19, the binding result was “binds”.

For the molecule B20, the binding result is reported as “binds”.

Turning to B21, the binding result is recorded as “binds”.

With B22, the binding result is on record as “binds”.

For B23, the binding result was “binds”.

Turning to B24, the binding result is “binds”.

Another experiment addresses T2, human Programmed Death-1 (PD-1) expressed on the cell surface (human, UniProt Q15116 25-288).
T2 construct: whole, on cells; also called CD279; Human PD-1 Expressed on HEK293 Surface
Description: cell binding, HEK293 cells expressing human PD-1, fluorescent anti-mouse secondary. The procedure: Recombinant antibodies from cultured supernatants were also used in cell-based binding studies. HEK293 cells were transfected (Qiagen, SuperFect) with expression plasmids encoding the Ig heavy and light chains of anti-PD-1 antibodies. After 3-5 days, recombinant antibodies in the supernatants of transfected cells were harvested. Stable HEK293 cells expressing human PD-1 or primary cells were used for the cell-based binding confirmation studies. Antibodies from cultured supernatants were assessed for binding to cell surface PD-1 using fluorescently labeled anti-mouse IgG (polyclonal) antibody (Jackson Immunoresearch).
In both studies, commercially available mouse anti-PD-1 antibody and isotype control mouse IgG1 […] were used as controls. […] Strong binding is denoted as “+++”, medium binding is denoted as “++”, and weak binding is denoted as “+”.
B1: the binding result is given as “binds”.

Take B2: the binding result is listed as “binds”.

For the molecule B3, the binding result is on record as “binds”.

As to B4, the binding result is given as “binds”.

On to B5, for which the binding result is listed as “binds”.

Turning to B6, the binding result is “binds”.

Take B8: the binding result is listed as “binds”.

In the case of B10, the binding result is “binds”.

For B11, the binding result is listed as “binds”.

For the molecule B12, the binding result is “binds”.

Turning to B13, the binding result is listed as “binds”.

For B14, the binding result is listed as “binds”.

In the case of B15, the binding result is “binds”.

Consider B16, for which the binding result is given as “binds”.

Turning to B17, the binding result is “binds”.

Take B18: the binding result is “binds”.

In the case of B19, the binding result is given as “binds”.

As for B20, the binding result is “binds”.

As to B24, the binding result is “binds”.

For the origin of these results see patent US20160251436A1 (PD 1 ACQUISITION GROUP, published 2016).
